Among the data in PMC2912409 are Kd values, retold here.

Some targets named below: DB_S201A (human, UniProt P03372 176-250, S201A); DB_AA (human, UniProt P03372 176-250, H196A;E203A); DB_Y197A (human, UniProt P03372 176-250, Y197A); DB_S193A (human, UniProt P03372 176-250, S193A); DB_H196A (human, UniProt P03372 176-250, H196A); DB_K210A (human, UniProt P03372 176-250, K210A); DB_R211A (human, UniProt P03372 176-250, R211A); DB_K206A (human, UniProt P03372 176-250, K206A); DB_D190A (human, UniProt P03372 176-250, D190A); DB_E203A (human, UniProt P03372 176-250, E203A).

Assay in all cases: ITC

Sequence of DB_E203A (P03372 176-250 E203A): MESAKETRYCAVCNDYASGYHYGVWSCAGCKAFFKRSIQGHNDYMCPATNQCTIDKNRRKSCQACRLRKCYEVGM
Sequence of DB_S193A (P03372 176-250 S193A): as the sequence (P03372 176-250 E203A) above, with S18A, A28E counted along it
Sequence of DB_H196A (P03372 176-250 H196A): as the sequence (P03372 176-250 E203A) above, with H21A, A28E counted along it
Sequence of DB_K206A (P03372 176-250 K206A): as the sequence (P03372 176-250 E203A) above, with A28E, K31A counted along it
Sequence of DB_AA (P03372 176-250 H196A/E203A): as the sequence (P03372 176-250 E203A) above, with H21A counted along it
Sequence of DB_K210A (P03372 176-250 K210A): as the sequence (P03372 176-250 E203A) above, with A28E, K35A counted along it
Sequence of DB_S201A (P03372 176-250 S201A): as the sequence (P03372 176-250 E203A) above, with S26A, A28E counted along it
Sequence of DB_D190A (P03372 176-250 D190A): as the sequence (P03372 176-250 E203A) above, with D15A, A28E counted along it
Sequence of DB_Y197A (P03372 176-250 Y197A): as the sequence (P03372 176-250 E203A) above, with Y22A, A28E counted along it
Sequence of DB_R211A (P03372 176-250 R211A): as the sequence (P03372 176-250 E203A) above, with A28E, R36A counted along it

B1: ERE duplex (dsDNA)
DNA 1: CCCAGGTCACAGTGACCTGCG
DNA 2: CGCAGGTCACTGTGACCTGGG
By Kd is commonly meant the constant that tells how readily two partners part at equilibrium. For B1, the dissociation constant Kd with DB_S201A was 119 ± 9 nM; in the series with DB_AA it was 387 ± 90 nM; with DB_Y197A, 316 ± 7 nM; with DB_S193A it was 102 ± 10 nM; in the series with DB_H196A, 190 ± 24 nM; with DB_K210A, 326 ± 11 nM. The dissociation constant Kd was 745 ± 76 nM with DB_R211A, 313 ± 6 nM with DB_K206A, 67 ± 6 nM with DB_D190A and 172 ± 48 nM in the series with DB_E203A.
